From article doi:10.1101/2022.07.21.500940 (bioRxiv, 2022) come the findings set out here.

The assay deals with Human PCNA (human, UniProt P12004 1-261). The assay is described as follows: pull-down.
Chain of Human PCNA (P12004 whole entry): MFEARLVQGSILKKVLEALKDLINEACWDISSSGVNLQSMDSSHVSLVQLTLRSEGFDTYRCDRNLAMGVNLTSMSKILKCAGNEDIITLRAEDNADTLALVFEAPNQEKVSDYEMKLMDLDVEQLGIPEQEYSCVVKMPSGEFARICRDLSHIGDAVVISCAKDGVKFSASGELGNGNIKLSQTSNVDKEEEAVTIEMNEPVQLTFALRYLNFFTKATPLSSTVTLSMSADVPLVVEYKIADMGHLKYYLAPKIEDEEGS

In the case of ARHPSTKVMKQMDIGVYFGLPPKRKEEKLL [GST-tagged SNM1A PIP box peptide (GST-PIP)], the binding result was “binds”.
